Measured values: paper PMC6326811

Biological target: FLAG-HA-tagged full-length wild-type TOE1 (human) (UniProt Q96GM8)
Assay: co-IP; IP-TRAP: lysates of 293T cells transiently expressing FLAG-HA-tagged proteins incubated with anti-FLAG M2 beads at 4°C for 2 h; telomerase in the eluates read by its activity (Q-TRAP)

With “active telomerase (endogenous telomerase holoenzyme of 293T cells) (from UniProt O14746 1-1132) (complex)” the telomerase activity brought down, relative to FLAG-TCAB1 (fraction of FLAG-TCAB1) was 0.33.
